How the values were obtained:
cyno FRα [1] = assay: HTRF antigen (IgG) binding assay; parameters: species or system cynomolgus monkey; details: hybridoma supernatant, 1 nM biotinylated antigen; binder >30% delta F
Experimental: (§1) The negative control ratio was derived from nonspecific binding (NSB) control wells. Curves were analysed using GraphPad Prism software using a four-parameter logistic curve-fitting equation.

human FRα [2] = target: T1, human FRα (Homo sapiens, UniProt P15328); assay: HTRF epitope competition assay with Comparator 3 IgG; format: binding; details: n > 2; human IgG1 format
T1 construct: CD33 leader (signal peptide) (N, cleaved yes); made in house; host or cells: in-house suspension-adapted CHO cell line
Experimental: (§2) HTRF epitope competition assays were set up using a titration of test IgG, 1 nM streptavidin cryptate, biotinylated human FRα and DyLight 650 labelled IgG to assay volume of 10 μl. For the Comparator Antibody 1 and Comparator Antibody 2 assays, 0.5 nM biotinylated human FRα and 0.5 nM DyLight 650 labelled Comparator Antibody 1 or Comparator Antibody 2 was used. […] Assay plates were incubated for 3-4 h at room temperature prior to fluorescence measurement.

[3] = Hydrophobic interaction chromatography (HIC) HPLC; format: physicochemical; details: higher retention = more hydrophobic
human FRβ = target: T2, human FRβ (Homo sapiens, UniProt P14207); assay: HTRF antigen (IgG) binding assay; details: hybridoma supernatant, 1 nM biotinylated antigen; binder >30% delta F
T2 construct: CD33 signal peptide (N, cleaved yes); made in house
Experimental: as §1

human FRγ = target: T3, human FRγ (Homo sapiens, UniProt P41439); assay: HTRF antigen (IgG) binding assay; details: hybridoma supernatant, 1 nM biotinylated antigen; binder >30% delta F
T3 construct: CD33 signal peptide (N, cleaved yes); made in house
Experimental: as §1

mouse FRα = target: T4, mouse FRα (Mus musculus, UniProt P35846); assay: HTRF antigen (IgG) binding assay; details: hybridoma supernatant, 1 nM biotinylated antigen; binder >30% delta F
T4 construct: CD33 signal peptide (N, cleaved yes); made in house
Experimental: as §1

human FRα [4] = target: T1, human FRα; assay: HTRF antigen (IgG) binding assay; details: hybridoma supernatant, 1 nM biotinylated antigen; binder >30% delta F
Experimental: as §1

human FRα [5] = target: T1, human FRα; assay: HTRF epitope competition assay with Comparator 1 IgG; format: binding; details: n > 2; human IgG1 format
Experimental: as §2

cyno FRα [6] = assay: Biacore T200 surface plasmon resonance affinity; format: binding, cynomolgus monkey; details: SPR 25° C.
Experimental: (§3) Protein A was covalently immobilised to a CM5 chip surface using standard amine coupling techniques at a concentration of 50 μg/ml in 10 mM Sodium acetate, pH 4.0. The antibody was captured onto the Protein A surface in HBS-EP+ buffer, pH 7.4 at 10 μl/min to enable FRα ECD binding. The FRα ECD was serially diluted (0.4 nM-100 nM human FRα ECD; 0.8 nM-200 nM cyno FRα ECD; 30 nM-4000 nM mouse FRα ECD and rat FRα ECD) in HBS-EP+ buffer, pH 7.4 and flowed over the chip at 50 μl/min, with 2 minutes association and 8 minutes dissociation. The chip surface was fully regenerated with pulses of 3 M MgCl2 to remove captured antibody together with any bound FRα ECD. Multiple buffer-only injections were made under the same conditions to allow for double reference subtraction of the final sensorgram sets, which were analysed using Biacore T200 Evaluation Software to derive equilibrium dissociation constants.

[7] = Pharmacokinetics of anti-FRα antibodies in wild-type SCID mice; format: in vivo, mouse; details: 5 mg/kg iv bolus, total antibody
Experimental: Pharmacokinetic parameters were determined using Phoenix 64 software (Certara).
Plasma antibody concentrations were determined by the universal ELISA IgG assay.

human FRα [8] = target: T1, human FRα; assay: Biacore T200 surface plasmon resonance affinity; format: binding; details: SPR 25° C.
Experimental: as §3

human FRα [9] = target: T1, human FRα; assay: HTRF epitope competition assay with Comparator 2 IgG; format: binding; details: n > 2; human IgG1 format
Experimental: as §2

[10] = Accelerated thermal stability assay, HP-SEC; format: physicochemical; details: 2 weeks, 1 mg/ml in PBS
Experimental: IgG were diluted to 1 mg/ml in PBS then incubated at 4° C. or 45° C. for 2 weeks then filtered using filter spin columns (Millipore, UFC30HVNB). High performance-size exclusion chromatography (HP-SEC) was performed by loading 70 μl of IgG onto a TSKgel G3000SWXL; 5 μm, 7.8 mm×300 mm column using a flow rate of 1 ml/min and 0.1 M sodium phosphate dibasic anhydrous and 0.1 M sodium sulphate, pH 6.8 as the isocratic running buffer. Larger molecules are excluded from the pores of the size exclusion column to a greater extent than smaller molecules, and therefore elute earlier. Peaks eluting earlier than the monomer peak are recorded as aggregates. Peaks eluting after the monomer peak (excluding the buffer-related peak) are recorded as fragments. In parallel, antibodies were profiled in the HTRF epitope competition assay for changes in potency.

T4 sequence (P35846 with tags, fused parts or gaps): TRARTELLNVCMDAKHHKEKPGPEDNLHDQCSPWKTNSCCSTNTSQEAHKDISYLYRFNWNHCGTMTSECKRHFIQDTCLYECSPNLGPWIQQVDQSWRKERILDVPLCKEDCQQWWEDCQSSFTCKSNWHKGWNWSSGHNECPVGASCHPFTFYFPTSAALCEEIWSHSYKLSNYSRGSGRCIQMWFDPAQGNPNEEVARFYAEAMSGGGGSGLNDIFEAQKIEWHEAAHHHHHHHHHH
T1 sequence (P15328 with tags, fused parts or gaps): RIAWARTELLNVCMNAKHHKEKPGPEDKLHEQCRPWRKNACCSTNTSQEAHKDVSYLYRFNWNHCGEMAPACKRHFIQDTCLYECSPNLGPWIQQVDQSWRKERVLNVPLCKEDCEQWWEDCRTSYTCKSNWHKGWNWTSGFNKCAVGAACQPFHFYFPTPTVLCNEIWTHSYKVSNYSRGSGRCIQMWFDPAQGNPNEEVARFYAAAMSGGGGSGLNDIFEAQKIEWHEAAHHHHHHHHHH
T3 sequence (P41439 with tags, fused parts or gaps): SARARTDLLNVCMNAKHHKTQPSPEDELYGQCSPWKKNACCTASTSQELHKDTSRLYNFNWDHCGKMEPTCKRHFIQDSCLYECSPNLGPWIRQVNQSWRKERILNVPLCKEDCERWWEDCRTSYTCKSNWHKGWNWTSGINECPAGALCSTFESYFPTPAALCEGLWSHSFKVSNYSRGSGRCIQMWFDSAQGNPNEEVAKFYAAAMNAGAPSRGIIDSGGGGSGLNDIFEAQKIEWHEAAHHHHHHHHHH
Sequence of cyno FRα (as listed by the source): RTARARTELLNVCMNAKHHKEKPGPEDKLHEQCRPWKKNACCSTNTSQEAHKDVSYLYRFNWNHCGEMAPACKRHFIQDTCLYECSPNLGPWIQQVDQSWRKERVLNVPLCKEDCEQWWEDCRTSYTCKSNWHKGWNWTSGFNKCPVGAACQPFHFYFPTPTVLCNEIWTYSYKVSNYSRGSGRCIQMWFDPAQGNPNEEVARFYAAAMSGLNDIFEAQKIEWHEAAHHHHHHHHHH
T2 sequence (P14207 with tags, fused parts or gaps): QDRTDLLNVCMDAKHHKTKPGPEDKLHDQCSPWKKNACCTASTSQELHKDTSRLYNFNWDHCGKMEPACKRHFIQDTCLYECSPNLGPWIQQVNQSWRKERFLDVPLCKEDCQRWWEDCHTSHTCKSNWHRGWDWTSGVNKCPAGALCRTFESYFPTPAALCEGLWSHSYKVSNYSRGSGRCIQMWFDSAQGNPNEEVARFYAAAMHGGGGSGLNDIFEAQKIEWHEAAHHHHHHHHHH

Molecule | HTRF IgG binding assay (% Delta F) Cyno FRα (cyno FRα [1]) | HTRF epitope competition assay, geomean IC50 (M), Comparator 3 IgG (human FRα [2]) | Retention time by HIC-HPLC [3] | HTRF IgG binding assay (% Delta F) Human FRβ (human FRβ) | HTRF IgG binding assay (% Delta F) Human FRγ (human FRγ) | HTRF IgG binding assay (% Delta F) Mouse FRα (mouse FRα) | HTRF IgG binding assay (% Delta F) Human FRα (human FRα [4]) | HTRF epitope competition assay, geomean IC50 (M), Comparator 1 IgG (human FRα [5]) | ka (cyno FRα [6]) | kd (cyno FRα [6]) | AUClast [7] | CL [7] | Cmax [7] | Vss [7] | t1/2 [7] | ka (human FRα [8]) | kd (human FRα [8]) | HTRF epitope competition assay, geomean IC50 (M), Comparator 2 IgG (human FRα [9]) | HP SEC % monomer ([10]; 4° C.) | HP SEC % monomer ([10]; 45° C.)
AB1370035: anti-FRα fully human IgG1 antibody; VH SEQ ID NO: 41, VL SEQ ID NO: 42 (antibody, V domains shown) VH: QVQLQQSGPGLVKPSQTLSLTCAISGDSVSSNSAAWNWIRQSPSRGLEWLGRTYYRSNWYNDYTLSVKSRITVNPDTSKNQFSLQLNSVTPEDTAVYYCVRGVGRFDSWGQGTLVTVSS VL: DIQMTQSPSTLSASVGDRVIITCRASQSISSWLAWYQQKPGKAPKLLIYKASSLESGVPSRFSGSGSGTEFTLTITSLQPDDFASYYCQEYKTYSIFTFGPGTKVDIK | 141.47 % Delta F | inhibited | 2.25 min | −3.26 % Delta F | 9.2 % Delta F | −5.22 % Delta F | 225.19 % Delta F | inhibited | 475000 M⁻¹ s⁻¹ | 0.000508 s⁻¹ | 455 µg·days/mL | 5.6 mL/day/kg | 73.2 µg/mL | 0.16 L/kg | 19.5 days | 568000 M⁻¹ s⁻¹ | 0.000527 s⁻¹ | inhibited | 100% | 97.3%
AB1370026: anti-FRα fully human IgG1 antibody; VH SEQ ID NO: 39, VL SEQ ID NO: 40 (antibody, V domains shown) VH: EVQLVESGGGLVKPGGSLRLSCAASGFTFSSYAMSWVRQAPGKGLEWVSSISSGRSYIYYADSVKGRFTISRDNAKNSLYLKMNSLRDEDTAVYYCAREMQQLALDYWGQGTLVTVSS VL: DIQMTQSPSSLSASVGDRVTITCRASQGISNFLAWFQQAPGKAPKSLIYAASSLQSGVPSKFSGSGSGTDFTLTISSLQPEDFATYYCQQYNSYPFTFGQGTKLEIK | 213.68 % Delta F | no inhibition | 1.96 min | −0.38 % Delta F | 1.31 % Delta F | 1.63 % Delta F | 270.58 % Delta F | inhibited | 195000 M⁻¹ s⁻¹ | 0.000342 s⁻¹ | 553 µg·days/mL | 5.3 mL/day/kg | 91.7 µg/mL | 0.124 L/kg | 16.6 days | 279000 M⁻¹ s⁻¹ | 0.000354 s⁻¹ | inhibited | 100% | 97.3%
AB1370083: anti-FRα fully human IgG1 antibody; VH SEQ ID NO: 43, VL SEQ ID NO: 44 (antibody, V domains shown) VH: EVQLVESGGGLVKPGGSLRLSCAASGFTFSSYNMNWVRQAPGKGLEWVSSISSGSSYIYYADSMKGRFTISRDNAKNSLFLQMNSLRAEDTAVYYCARGMTTLTFDYWGQGTLVTVSS VL: DIQMTQSPSSLSASVGDRVTITCRASQGISTFLAWFQQKPGKAPKSLIYAASSLQSGVPSKFSGSGSETDFTLTISSLQPEDFATYYCQQYISYPLTFGGGTKVEIK | 85.16 % Delta F | no inhibition | 2.27 min | 3.81 % Delta F | −2.92 % Delta F | −3.65 % Delta F | 139.98 % Delta F | inhibited | 101000 M⁻¹ s⁻¹ | 0.00016 s⁻¹ | 430 µg·days/mL | 8.6 mL/day/kg | 86.0 µg/mL | 0.132 L/kg | 11.0 days | 145000 M⁻¹ s⁻¹ | 0.000135 s⁻¹ | inhibited | 99.6% | 98.3%
AB1370095: anti-FRα fully human IgG1 antibody; VH SEQ ID NO: 45, VL SEQ ID NO: 46 (antibody, V domains shown) VH: EVQLVESGGGLVKPGGSLRLSCAASGFTFSSYSMNWVRQAPGKGLEWVSSISSRSSYVYYADSVKGRFTISRDNAKNSLYLQMNSLRAEDTAVYYCARGMTTLTFDYWGQGTLVTVSS VL: DIQMTQSPSSLSASVGDRVTITCRASQGISSFLAWFQQKPGKAPKSLIYAASSLQSGVPSKFSGSGSGTDFTLTISSLQPEDFATYYCQQYNSYPLTFGGGTKVEIK | 85.33 % Delta F | no inhibition | 2.12 min | −5.87 % Delta F | −1.17 % Delta F | −5.66 % Delta F | 126.25 % Delta F | inhibited | 95800 M⁻¹ s⁻¹ | 0.00183 s⁻¹ | 646 µg·days/mL | 6.6 mL/day/kg | 123.2 µg/mL | 0.071 L/kg | 7.8 days | 95700 M⁻¹ s⁻¹ | 0.00129 s⁻¹ | inhibited | 99.2% | 96.6%
